Laboratory results reported in US20250327089A1.

Target: target receptor on brush border membrane vesicles (BBMVs) from C. includens (Pseudoplusia includens (C. includens))

Substance: PtIP-65Aa polypeptide (Pteridophyta Insecticidal Protein-65Aa)
- EC50: 0.014 µM
